A word on the Kd: it is the free concentration of one partner at which half of the binding sites on the other are occupied at equilibrium, for simple one-to-one binding. Broadly, the t½ is the time needed for the level to fall by half in the phase considered.

For experiment [1], the target named is HMM-mfMSR1 (monkey MSR1 extracellular domain). Nature of the experiment: Biacore surface plasmon resonance binding kinetics of anti-MSR1 mAbs, antibody-capture format. Particulars: analyte HMM-mfMSR1, NB = no binding observed; for kd: * = no dissociation observed, kd manually fixed at 1.00E−05; for ka: antibody-capture format; for Kd: calculated from kinetic rates; for t½: dissociative half-life. On the procedure: (§1) Binding affinities and kinetic constants of human anti-MSR1 antibodies for different MSR1 reagents were determined by real-time surface plasmon resonance (Biacore 4000). All binding studies were performed in 10 mM HEPES, 150 mM NaCl, 3 mM EDTA, and 0.05% v/v Surfactant Tween-20, pH 7.4 (HBS-ET) running buffer at 25° C. and 37° C.
(§2) The association rate (ka) and dissociation rate (kd) were determined by fitting the real-time binding sensorgrams to a 1:1 binding model with mass transport limitation using Scrubber 2.0c curve-fitting software. Binding dissociation equilibrium constant (KD) and dissociative half-life (t½) were calculated from the kinetic rates as: […]

In experiment [2] the target is T1, His9-hMSR1 (human MSR1 extracellular domain) (Homo sapiens, UniProt P21757).
T1 construct: human MSR1 extracellular domain expressed with a N-terminal nonahistidine tag; His9 (nonahistidine) (N); purchased R&D Systems 2708-MS
T1 sequence (P21757 77-451 limits assumed): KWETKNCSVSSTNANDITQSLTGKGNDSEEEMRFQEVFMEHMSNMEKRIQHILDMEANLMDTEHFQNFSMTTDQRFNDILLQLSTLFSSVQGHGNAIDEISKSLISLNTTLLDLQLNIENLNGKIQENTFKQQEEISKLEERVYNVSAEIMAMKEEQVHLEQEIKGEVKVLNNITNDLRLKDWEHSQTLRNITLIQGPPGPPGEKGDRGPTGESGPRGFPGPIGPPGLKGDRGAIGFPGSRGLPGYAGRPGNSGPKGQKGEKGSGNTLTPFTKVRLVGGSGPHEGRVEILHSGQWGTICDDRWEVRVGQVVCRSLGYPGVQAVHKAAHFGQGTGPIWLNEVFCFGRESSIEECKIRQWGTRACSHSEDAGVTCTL
Described as above. The note with it: analyte His9-hMSR1, NB = no binding observed; for kd: * = no dissociation observed, kd manually fixed at 1.00E−05; for ka: antibody-capture format; for Kd: calculated from kinetic rates; for t½: dissociative half-life. On the procedure:
as §1, §2

The target of experiment [3] is T2, PMA-treated THP-1 cells (endogenously expressed human MSR1) (Homo sapiens, UniProt P21757).
T2 construct: endogenous in cells; host or cells: THP-1 cells differentiated with PMA
T2 sequence (P21757 1-451): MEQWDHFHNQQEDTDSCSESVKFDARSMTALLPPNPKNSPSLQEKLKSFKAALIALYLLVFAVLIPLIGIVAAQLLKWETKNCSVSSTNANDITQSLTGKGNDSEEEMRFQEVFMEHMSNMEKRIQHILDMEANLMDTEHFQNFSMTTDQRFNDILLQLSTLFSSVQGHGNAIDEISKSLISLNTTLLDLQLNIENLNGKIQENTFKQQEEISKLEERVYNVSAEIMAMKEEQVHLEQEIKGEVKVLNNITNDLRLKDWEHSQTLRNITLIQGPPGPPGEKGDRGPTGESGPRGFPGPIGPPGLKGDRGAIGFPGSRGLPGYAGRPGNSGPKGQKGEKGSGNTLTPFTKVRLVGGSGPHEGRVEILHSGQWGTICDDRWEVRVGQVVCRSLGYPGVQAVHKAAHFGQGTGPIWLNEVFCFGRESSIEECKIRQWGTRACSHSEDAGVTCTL
Nature of the experiment: Electrochemiluminescence antibody binding assay on MSR1-expressing cells. The format is cell-based.

Experiment [4] concerns parental HEK293 cells. In words: Electrochemiluminescence antibody binding assay, non-specific binding control cells. The experiment is classed as cell-based, human.
For experiment [5], the target named is T3, MSR1 on differentiated THP-1 cells (Homo sapiens, UniProt P21757).
T3 construct: endogenous in cells; host or cells: THP-1 cells differentiated with PMA
T3 sequence (P21757 1-451): T2 sequence (P21757 1-451)
Nature of the experiment: Binding and internalization of cell-surface expressed MSR1 in differentiated THP-1 cells. The format is cell-based. The note with it: 10 μg/mL antibody; for Total Binding at 37° C. / Total Internalized RFU: 37° C. On the procedure:
Exemplary anti-MSR1 antibodies were assessed for their ability to bind and internalize MSR1 on MSR1-expressing cells.
The THP-1 cells were allowed to differentiate for 4 days at 37° C. in 5% CO2. […] The remaining two plates were incubated at 37° C. for 1 hour followed by fixation and staining for 20 minutes using a solution of 4% PFA+5 μM DRAQ5 diluted in PBS (internalization plates). After fixation, all plates were washed once with PBS. […] The remaining plates were incubated with PBS only. Confocal images were acquired on the Opera Phenix (Perkin Elmer) at 40× magnification. […] The total binding at 4° C. (RFU values of 4° C. unquenched wells), total binding at 37° C. (RFU values of 37° C. unquenched wells), the total internalized RFU, and % Internalization were determined for each antibody as shown in Table 14.
For all calculations, background fluorescence from unstained wells was subtracted from every well. Total internalized RFU was calculated as follows: Total RFU of 37° C. unquenched samples−Surface RFU at 37° C. Surface RFU is defined as unquenched RFU at 37° C.−quenched RFU at 37° C.)/QE. QE (quenching efficiency) is defined as: 1−(Total RFU of 4° C. quenched sample/Total RFU of 4° C. unquenched sample). The % Internalization was determined from the following formula: (Total internalized RFU at 37° C./Total RFU at 37° C.)*100.

Changes are numbered by the printed parent chain. Names may count otherwise.

HMM-mfMSR1 (monkey MSR1 extracellular domain), sequence (as listed by the source): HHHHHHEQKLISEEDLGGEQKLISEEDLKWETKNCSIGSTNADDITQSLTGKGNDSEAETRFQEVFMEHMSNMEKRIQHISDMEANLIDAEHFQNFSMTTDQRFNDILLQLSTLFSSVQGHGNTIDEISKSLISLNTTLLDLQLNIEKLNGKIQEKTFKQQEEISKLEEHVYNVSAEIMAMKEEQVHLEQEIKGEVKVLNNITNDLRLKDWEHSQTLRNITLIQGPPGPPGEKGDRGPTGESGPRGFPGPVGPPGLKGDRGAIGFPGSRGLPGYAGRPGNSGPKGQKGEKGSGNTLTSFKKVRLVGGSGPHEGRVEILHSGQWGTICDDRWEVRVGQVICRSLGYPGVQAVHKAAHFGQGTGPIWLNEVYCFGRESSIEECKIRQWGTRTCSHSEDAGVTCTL

B1: H1H27731P-N297Q: one of "Twelve anti-MSR1 antibodies"; "made with an N297Q single point mutation in human Fcγ portion" (antibody, V domains shown)
VH: QLQLQESGPGLVKPSETLSLTCTVSGGSISRISYYWGWIRQPPGKGLEWIGSIYDSGSTYYNPSLKSRVTISIDTSKNQFSLKLSSVTAADTAVYYCVRYSSSSAFAFDYWGQGTLVTVSS
VL: DIQMTQSPSSVSASVGDRVTITCRASQGISSWLAWYQQKPGKAPKLLIYAASSLQSGVPSRFSGSGSGTDFTLTISSLQPEDFATYYCQQANSFPFTFGPGTKVDIKR
In experiment [1] (25° C.), B1 displayed a kd of 4.69e-05 s⁻¹ and a ka of 98200 M⁻¹ s⁻¹. In experiment [1] (37° C.), this molecule gave a kd of 0.000187 s⁻¹ and a ka of 278000 M⁻¹ s⁻¹. Moreover, in experiment [2] (25° C.), the kd was 2.24e-05 s⁻¹ and the ka came out at 129000 M⁻¹ s⁻¹. Besides, in experiment [2] (37° C.), the kd amounted to 0.000132 s⁻¹ and the ka stood at 286000 M⁻¹ s⁻¹. In experiment [3], the “Ratio of 11 nM Antibody Binding Signal (RLU) to isotype control, PMA-treated THP-1” value (from here on “Ratio … PMA-treated THP-1”) was 38. The “Ratio of 11 nM Antibody Binding Signal (RLU) to isotype control, HEK293” value (from here on “Ratio of 11 nM Antibody Binding Signal … HEK293”) in experiment [4] amounted to 7. For the same molecule, in experiment [5], the “% Internalization” value was 54.2%, the “Total Binding at 4° C.” value is recorded as 1215319, the “Total Binding at 37° C.” value was 1802404 and the “Total Internalized RFU” value was found to be 977543 RFU.

B2: H1H27754P-N297Q: one of "Twelve anti-MSR1 antibodies"; "made with an N297Q single point mutation in human Fcγ portion" (antibody, V domains shown)
VH: EVQLVESGGGLVQPGGSLRLSCAASGFTFRTYAMTWVRQAPGKGLDWVSAITGDGGNTYYADSVKGRFTISRDNSKNTLYLQMNSLRAEDTAIYYCAKDQRFSFALYYFDYWGQGTLVTVSS
VL: B1 VL with K42N, S52F, S93N, F96W, P100Q, D105E
In experiment [1] (25° C.), B2 displayed a kd of 1.76e-05 s⁻¹ and a ka of 235000 M⁻¹ s⁻¹. In addition, in experiment [1] (37° C.), the kd was 3.53e-05 s⁻¹ and the ka came to 701000 M⁻¹ s⁻¹. In addition, in experiment [2] (25° C.), the kd is on record as 1.00E−05* s^−1 and the ka is 290000 M⁻¹ s⁻¹. In experiment [2] (37° C.), this molecule showed a kd of 2.53e-05 s⁻¹ and a ka of 663000 M⁻¹ s⁻¹. For the same molecule, the “Ratio … PMA-treated THP-1” value in experiment [3] amounted to 66. Besides, the “Ratio of 11 nM Antibody Binding Signal … HEK293” value in experiment [4] stood at 18. Besides, in experiment [5], the “% Internalization” value is listed as 90.0%, the “Total Binding at 4° C.” value came out at 3077308, the “Total Binding at 37° C.” value was determined as 7161570 and the “Total Internalized RFU” value worked out at 6446236 RFU.

B3: H1H27734P-N297Q: one of "Twelve anti-MSR1 antibodies"; "made with an N297Q single point mutation in human Fcγ portion" (antibody, V domains shown)
VH: EVQLVESRGGLVQPGGSLRLSCAASGFTFSSYAMSWVRQAPGKGLEWVSAISGSGGSTFYADSVKGRFTISRDNSKNTVYLQMNSLRAEDTAVYYCAKALVLRFLEWLGDYWGQGTLVTVSS
VL: DIQMTQSPSTLSASVGDRVTITCRASQSISSWLAWFQQKPGKAPKLLIYKASSLESGVPSRFSGSGSGTEFTLTISSLQPDDFATYYCQQYKSYWTFGQGTKVEIKR
Take B3: the kd was 0.00291 s⁻¹ in experiment [1] (25° C.), 0.0032 s⁻¹ in experiment [1] (37° C.), 0.00111 s⁻¹ in experiment [2] (25° C.) and 0.0019 s⁻¹ in experiment [2] (37° C.). The ka in experiment [1] (25° C.) worked out at 423000 M⁻¹ s⁻¹; in experiment [1] (37° C.), 949000 M⁻¹ s⁻¹; in experiment [2] (25° C.), 420000 M⁻¹ s⁻¹; in experiment [2] (37° C.), 1.09e+06 M⁻¹ s⁻¹. Moreover, the “Ratio … PMA-treated THP-1” value in experiment [3] was 21. Moreover, the “Ratio of 11 nM Antibody Binding Signal … HEK293” value in experiment [4] was determined as 14. Besides, in experiment [5], the “Total Binding at 4° C.” value is on record as 482859. In addition, the “Total Binding at 37° C.” value in experiment [5] turned out to be 1151348. For the same molecule, the “Total Internalized RFU” value in experiment [5] was found to be 737425 RFU.

B4: H1H21227N-N297Q: "modified versions of 21227N (H1H21227N-N297Q and H1H21227N-N297D)"; anti-MSR1 antibody "with a N297Q single point mutation" (antibody, V domains shown)
VH: QVQLVQSGAEVKKPGASVKVSCKVSGYTLTELSIHWVRQVPGKGLEWMGGFDPEEGETIFAQEFRDRVTLTEDTSPDTAYMELSSLKSEDAAVYYCTTPRYCNNGICYDYWGQGTLVTVSS
VL: DIQMTQSPSSLSASVGDRVTITCRASQSISNYLNWYQQKPGKAPKLLIYTASSLQSGVPSRFSGSGSGTDFTLTISSLQTEDFATYYCQQSYSNFPITFGQGTRLEIKR
As for B4, in experiment [1] (25° C.), the kd turned out to be 7.51e-05 s⁻¹, the ka was found to be 1.36e+06 M⁻¹ s⁻¹, the Kd is 0.0553 nM and the t½ was determined as 2.57 h. Moreover, in experiment [1] (37° C.), the kd was determined as 1.08e-05 s⁻¹, the ka is 2.74e+06 M⁻¹ s⁻¹, the Kd was 0.00395 nM and the t½ turned out to be 17.82 h. Also, in experiment [2] (25° C.), the kd worked out at 4.89e-05 s⁻¹, the ka came to 1.23e+06 M⁻¹ s⁻¹, the Kd is 0.0397 nM and the t½ amounted to 3.93 h. Moreover, in experiment [2] (37° C.), the kd turned out to be 1.23e-05 s⁻¹, the ka was determined as 2.67e+06 M⁻¹ s⁻¹, the Kd was 0.0046 nM and the t½ came to 15.7 h. Further, in experiment [3], the “Ratio … PMA-treated THP-1” value turned out to be 5. Moreover, the “Ratio of 11 nM Antibody Binding Signal … HEK293” value in experiment [4] is reported as 1. In addition, in experiment [5], the “% Internalization” value was 78.5%, the “Total Binding at 4° C.” value is 1800012, the “Total Binding at 37° C.” value turned out to be 4110990 and the “Total Internalized RFU” value is 3226161 RFU.

These data come from patent US12497460B2, “Anti-MSR1 antibodies and methods of use thereof” (REGENERON PHARMACEUTICALS, INC., priority 2018, dated 2025).
